In patent US8728749B2, “Detection of LCAT activity” (priority 2010, dated 2014):

molecular target: T1, rhLCAT (Homo sapiens, UniProt P04180); experiment: LCAT activating potential of LCAT-activating peptides in mHDL substrate (DHE fluorescence / cholesterol oxidase assay); format: biochemical; details: specific activity of rhLCAT with peptide/POPC/DHE substrate, 50 μM DHE, relative to SEQ ID NO: 1
T1 construct: made in house; host or cells: HEK293f cells, stably transfected with pcDNA3.1/Hygro carrying the LCAT insert from Origene pCMV6-XL4/LCAT
T1 sequence (P04180 25-440): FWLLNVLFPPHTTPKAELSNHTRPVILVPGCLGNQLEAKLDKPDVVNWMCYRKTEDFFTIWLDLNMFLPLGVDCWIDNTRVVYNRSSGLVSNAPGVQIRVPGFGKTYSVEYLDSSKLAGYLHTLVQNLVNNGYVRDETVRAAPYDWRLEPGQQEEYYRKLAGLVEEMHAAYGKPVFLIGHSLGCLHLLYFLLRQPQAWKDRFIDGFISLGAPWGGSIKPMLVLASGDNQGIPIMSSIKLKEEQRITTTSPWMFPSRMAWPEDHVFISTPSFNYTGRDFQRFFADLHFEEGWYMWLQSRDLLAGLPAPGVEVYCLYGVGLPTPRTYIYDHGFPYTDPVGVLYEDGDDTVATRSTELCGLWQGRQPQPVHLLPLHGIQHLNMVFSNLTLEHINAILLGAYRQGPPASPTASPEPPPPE
Method: Recombinant human LCAT (rhLCAT), isolated from cells expressing human LCAT (Example 5), was diluted into phosphate buffer containing 5 mM β-mercaptoethanol and 60 μM bovine serum albumin to obtain rhLCAT concentrations that would deliver the indicated mass of rhLCAT to assay samples in a 5 μL volume. Substrate, prepared as in Example 1, was diluted to 62.5 μM DHE with phosphate buffer containing 5 mM β-mercaptoethanol and 60 μM bovine serum albumin. One hundred microliter volumes of the diluted substrate were added to individual wells of a black, polystyrene 96-well plate (Whatman 7701-2350) which had previously been loaded with 5 μL of rhLCAT. Blank and control wells were not loaded with rhLCAT. The plate was covered and incubated at 37° C. for one hour. The reaction was quenched by the addition of 25 μL phosphate buffer containing 2% Triton X-100 and 5 units/ml COx (Streptomyces sp.) to all wells except control wells, which received 2% Triton X-100 without COx. The plate was returned to the incubator for one hour, then equilibrated to 37° C. in the plate reader and scanned for DHE fluorescence. Percent fluorescence was calculated from the ratio of the average fluorescence of duplicate wells treated with COx to the average fluorescence of the control wells. The amount of fluorescence remaining after oxidation is directly proportional to the amount of DHE esterified by LCAT. The line represents the fit of the data by linear regression. (FIG. 4).
(§1) Two microliter aliquots of plasma were added to separate assay wells followed by 100 microliters of substrate (Example 2). The assay plate was incubated for 2 hours at 37° C. followed by quenching with COx (Example 2). The nmoles DHE ester formed in each sample was calculated by subtracting the average fluorescence of the blank wells from the fluorescence of each sample well to obtain net fluorescence. The average net fluorescence of sample wells at each rhLCAT level was then divided by the average net fluorescence of control wells and multiplied by the DHE per well, which was 6.25 nmoles, to yield the nmoles of DHE ester formed. The line represents the fit of the data by linear regression. The activity detected at 0 μg/ml rhLCAT (Y-intercept) is the activity of endogenous mouse LCAT in the plasma (FIG. 5).
LCAT-activating peptides, which are produced by solid-phase synthesis (GenScript USA, Inc), are dissolved in methanol at 5 mM concentration. Three hundred and ninety seven microliters of 5 mM LAP and 357 microliters of a chloroform solution containing 25 mM POPC and 2.8 mM DHE are added to a glass vial. The solvents are evaporated by directing a gentle stream of inert gas (e.g. nitrogen) into the vial. Residual solvent is removed by high vacuum for 2 hours. The dried mixture is dispersed in 2 milliliters of phosphate buffer (150 mM NaCl, 50 mM sodium phosphate, 1 mM EDTA, pH 7.4) to obtain a final DHE concentration of 0.5 mM. The vial is flushed with inert gas and capped after buffer addition. The dispersion is obtained by vortexing and brief (10 to 30 seconds) sonication in a water bath sonicator. The substrate is protected from light and stored with inert gas in the capped vial at 2-8° C.
The LCAT activating potential of LAP is determined with the protocol described in Example 2 at a DHE concentration of 50 μM and with the rhLCAT concentrations indicated. A linear regression fit of nmoles DHE ester formed, calculated as in Example 3, versus rhLCAT in the sample yields the specific activity (nmol DHE ester/μg LCAT/hour) of rhLCAT with substrate. This protocol was used to compare and characterize the LCAT activating potential of amphipathic peptides with mean hydrophobicities and mean hydrophobic moments that were sufficient to enable the peptides to form stable micelle complexes with phosphatidylcholine and DHE (Table 3).

Question: With 2 (PTLDLFRELLNELLEALKQKLK) [compound 2] as the substance, how does the “RELATIVE ACTIVITY (Percent activity relative to SEQ ID: 1)” value read?
Answer: 94%

Question: With 3 (PSLDLFRELLNELLEALKQKLK) [compound 3] as the substance, how does the “RELATIVE ACTIVITY (Percent activity relative to SEQ ID: 1)” value read?
Answer: 87%

Question: For 4 (PVLDLFRELLNELLQKLKK) [compound 4], which “RELATIVE ACTIVITY (Percent activity relative to SEQ ID: 1)” value is on record?
Answer: 86%

Question: With 5 (PTLDLFRELLNELLQKLKK) [compound 5] as the substance, how does the “RELATIVE ACTIVITY (Percent activity relative to SEQ ID: 1)” value read?
Answer: 65%

Question: With 6 (PVLDLFRELLEELLQKLKK) [compound 6] as the substance, how does the “RELATIVE ACTIVITY (Percent activity relative to SEQ ID: 1)” value read?
Answer: 65%

Question: For 7 (PVLDLFKELLEELFQKLKK) [compound 7], which “RELATIVE ACTIVITY (Percent activity relative to SEQ ID: 1)” value is on record?
Answer: 56%

Question: For 8 (PVLDKFLELLEELFQKLKK) [compound 8], which “RELATIVE ACTIVITY (Percent activity relative to SEQ ID: 1)” value is on record?
Answer: 15%

Question: For 9 (EWLKAFLEKVLEKLKELF) [compound 9], which “RELATIVE ACTIVITY (Percent activity relative to SEQ ID: 1)” value is on record?
Answer: 55%

Question: Which “RELATIVE ACTIVITY (Percent activity relative to SEQ ID: 1)” value does the source give for 10 (EWLKAFYEKVLEKLKELF) [compound 10] here?
Answer: 43%

Question: Which “RELATIVE ACTIVITY (Percent activity relative to SEQ ID: 1)” value does the source give for 11 (DWLKAFYDKVFEKFKEFF) [compound 11] here?
Answer: 28%

Question: For 12 (EVLKNLLEKLLEKLKELF) [compound 12], which “RELATIVE ACTIVITY (Percent activity relative to SEQ ID: 1)” value is on record?
Answer: 21%

Question: With “13 (DLWQRLLELFNELLEKLKQALK) [compound 13]” as the substance, how does the “RELATIVE ACTIVITY (Percent activity relative to SEQ ID: 1)” value read?
Answer: 0%

Question: Which “RELATIVE ACTIVITY (Percent activity relative to SEQ ID: 1)” value does the source give for 14 (DVFQALKELFAQLLEKWKQV) [compound 14] here?
Answer: 0%

test system: not listed separately; experiment: Time course of LCAT activity in plasma from mice injected intravenously with rhLCAT; format: in vivo, transgenic mice expressing human apoA-I; details: intravenous, 10 mg/kg (30×), plasma collected at 1 hour post-dose
Method: as §1
The utility of the current invention to measure LCAT activity changes in vivo as a result of rhLCAT injection is shown in FIG. 6. Transgenic mice expressing human apoA-I (Jackson Laboratories) and maintained on chow diet were injected (intravenous) with rhLCAT in normal saline at doses of 1 mg/kg (3×), 3 mg/kg (10×) or 10 mg/kg (30×). Control animals were injected with saline alone. Plasma was prepared from blood samples collected at 0.1, 1, 5 and 24 hours following LCAT injection. […]

Question: For “rhLCAT: recombinant human LCAT isolated from culture medium of HEK293f cells expressing human LCAT”, which “increase in LCAT activity in plasma” value is on record?
Answer: 11 fold
